{"source": "the DeepSol protein solubility set", "data": [{"assay": "soluble on expression in E. coli; label from the status in PepcDB or PDB records", "values": [{"sequence": "MGSSHHHHHHSSGLVPRGSHMASMKQIKKLLVANRGEIAIRIFRAAAELDISTVAIYSNEDKSSLHRYKADESYLVGSDLGPAESYLNIERIIDVAKQANVDAIHPGYGFLSENEQFARRCAEEGIKFIGPHLEHLDMFGDKVKARTTAIKADLPVIPGTDGPIKSYELAKEFAEEAGFPLMIKATSGGGGKGMRIVREESELEDAFHRAKSEAEKSFGNSEVYIERYIDNPKHIEVQVIGDEHGNIVHLFERDCSVQRRHQKVVEVAPSVGLSPTLRQRICDAAIQLMENIKYVNAGTVEFLVSGDEFFFIEVNPRVQVEHTITEMVTGIDIVKTQILVAAGADLFGEEINMPQQKDITTLGYAIQCRITTEDPLNDFMPDTGTIIAYRSSGGFGVRLDAGDGFQGAEISPYYDSLLVKLSTHAISFKQAEEKMVRSLREMRIRGVKTNIPFLINVMKNKKFTSGDYTTKFIEETPELFDIQPSLDRGTKTLEYIGNVTINGFPNVEKRPKPDYELASIPTVSSSKIASFSGTKQLLDEVGPKGVAEWVKKQDDVLLTDTTFRDAHQSLLATRVRTKDMINIASKTADVFKDGFSLEMWGGATFDVAYNFLKENPWERLERLRKAIPNVLFQMLLRASNAVGYKNYPDNVIHKFVQESAKAGIDVFRIFDSLNWVDQMKVANEAVQEAGKISEGTICYTGDILNPERSNIYTLEYYVKLAKELEREGFHILAIKDMAGLLKPKAAYELIGELKSAVDLPIHLHTHDTSGNGLLTYKQAIDAGVDIIDTAVASMSGLTSQPSANSLYYALNGFPRHLRTDIEGMESLSHYWSTVRTYYSDFESDIKSPNTEIYQHEMPGGQYSNLSQQAKSLGLGERFDEVKDMYRRVNFLFGDIVKVTPSSKVVGDMALYMVQNDLDEQSVITDGYKLDFPESVVSFFKGEIGQPVNGFNKDLQAVILKGQEALTARPGEYLEPVDFEKVRELLEEEQQGPVTEQDIISYVLYPKVYEQYIQTRNQYGNLSLLDTPTFFFGMRNGETVEIEIDKGKRLIIKLETISEPDENGNRTIYYAMNGQARRIYIKDENVHTNANVKPKADKSNPSHIGAQMPGSVTEVKVSVGETVKANQPLLITEAMKMETTIQAPFDGVIKQVTVNNGDTIATGDLLIEIEKATD", "soluble on expression in E. coli": "soluble"}, {"sequence": "MGSDKIHHHHHHMKKLRVPHRTKSARVVQELVRLAAGLAASGSRVEDAFWENCLTAKIHAQLRTGDDQNLESALDQLYDTDPGGYSEFMYAIEAAIECSIFTRGNHTYDVLMLAVPMLTWSRFSIPSGLIAESVLSELRGQLQVQVLADDAQLALADCLFSPDQLPRGYHLTHELARKLWSTAVTGQRDLHMNPRQLPETGRFLSDTRYLLGGIAVPQGKPMFRWQQGTAGEHKGSNVSALQFSKEQILHAWQTHGTAVLLPLFQGCAFELLMPDGFFSAWRAADRLARPYSVRATVDFLETTLGISPDRLRAVIAPFYDQWLEEYRIGFTLKDRDSVLYGIIWGLVGDEDENTDSVAQIEAALRECGVTQTILLQEHFLLEYCEECGGPLFPNVNGEIVHAEFPEEGEVAPIHLH", "soluble on expression in E. coli": "not soluble"}, {"sequence": "MFTGLVEAIGVVKDVQGTIDNGFAMKIEAPQILDDCHTGDSIAVNGTCLTVTDFDRYHFTVGIAPESLRLTNLGQCKAGDPVNLERAVLSSTRMGGHFVQGHVDTVAEIVEKKQDGEAIDFTFRPRDPFVLKYIVYKGYIALDGTSLTITHVDDSTFSIMMISYTQSKVIMAKKNVGDLVNVEVDQIGKYTEKLVEAHIADWIKKTQA", "soluble on expression in E. coli": "soluble"}, {"sequence": "MIKVALPKGRLFEETVDLLLKRGIIEKRIEEGRKLILEEGGITFFLVKPSDVPVYVESGVSDLGVCGYDVYLEKKPSVYRLMDLGIGFCRIAVAGKPESEEKYFSSTHISVATKYPNIAYEFFKKKGVKADIYYLNGSVELAPLVGLSDFILDLVQTGRTLKENGLIVIEEVGKSTAWLIANKDSFRIKNGQIMEFLSRLVQHNKDGLQVQGSSLEHHHHHH", "soluble on expression in E. coli": "not soluble"}, {"sequence": "MAHHHHHHMGPRKSNAFASGKDDGAAAGKVRKVGGNGVGGSSATNSGSHKHGGAAAATMADIYTNEERAFLESQLALFTSGGGGSGGTDFARMTKEQWFAGLPTLVSATEKLLQAAADRYQQTCRERAAAAASVNGAQNAGSLPSADSSGVGKHGTTASSSHANSCTAEGIAPSGVAGSSDHRSTPAGGTPAQFAEENAYIIAQAQQLQWYPFTYQRWVELLLEPGKYHTACNDGGLRGDAIQTSLRRCILVTYPAVEGGDVI", "soluble on expression in E. coli": "soluble"}, {"sequence": "MSLTKIKNIKTKVYQWNGKTVPPKNNFCTNASDILYEKSDAMGSFRFHEWLICEIETDDGVFGIGNAALAPQIVKKTIDTYLKPLVVGEDPFDYAYIWEKMYRRTHAWGRRGIGMIAMSAIDIGIWDILGKITNKPVFKLLGGRTKEKIPVYASKLYSQPLNELQKEAETYKNQGFKMYKMSFGWGPKDGPEGMKKNIDLVEAVREVIGDDSDLMLESYMGWNLDYSKRIIPKLIKFNPRWLEEPVIADDIAGYSELNKMGVIPISGGEHEFNLFGFKQLLDLKAVSYIQYDTNRVGGITAAQKINALAESFQVPVVPHAGQMHNYHLTMANFNCPISEYFPVHDVEVGNELFYYIFEGDPEPKNGNINLDDNIPGLGLKISDKYKSDFNIIDEGHHHHHH", "soluble on expression in E. coli": "soluble"}, {"sequence": "QVGLVRSKNVMIISPKYVAIQERLLRELDKGVTLVPIEGGYRNAKGMLLMTVIREKDFPRLKEAILEIDEEAFLISMSASEVYGKGFSLKKVADSYGVEATNANNLQ", "soluble on expression in E. coli": "not soluble"}, {"sequence": "MTQTPDREKALELAVAQIEKSYGKGSVMRLGDEARQPISVIPTGSIALDVALGIGGLPRGRVIEIYGPESSGKTTVALHAVANAQAAGGVAAFIDAEHALDPDYAKKLGVDTDSLLVSQPDTGEQALEIADMLIRSGALDIVVIDSVAALVPRAELEGEMGDSHVGLQARLMSQALRKMTGALNNSGTTAIFINQLRDKIGVMFGSPETTTGGKALKFYASVRMDVRRVETLKDGTNAVGNRTRVKVVKNKCLAPFKQAEFDILYGKGISREGSLIDMGVDQGLIRKSGAWFTYEGEQLGQGKENARNFLVENADVADEIEKKIKEKLGIGAVVTDDPSNDGVLPAPVDF", "soluble on expression in E. coli": "soluble"}, {"sequence": "MSLSRQIRYYGTGTQKAYDELKQVLPEARILRMDVDTTKRKGAHEKILTKFGRHEADILLGTQMIAKGLDFPNVTLVGVLNADTSLNLPDFRSSERTFQLLTQVAGRAGRANKPGEVLIQTYNPNHYAIQLAREQDYEAFYRYEMRIRKALSYPPYYFTVGLTLSHKDEQEVIKKSYEIVTLIKEGLTDKIKILGPTPKPVARTHNLYHYQIIIKYRFEDQLEIVLNHILDLTQAKENKKLRLIIDHEPQSEGHHHHHH", "soluble on expression in E. coli": "not soluble"}, {"sequence": "WYCLISHGTRPKYWFDIEVYRQGYYPRCGQLRSWIARKDGIWFTRKYHSPPGHVLDWKIQ", "soluble on expression in E. coli": "not soluble"}, {"sequence": "MALNADDEDFEWEPPSEAEMKVIQARRERQDKISKLMGDYLLKGYKMLGECCELCGTILLQDKQKKNYCVACQELDSDVDKDNPALNAQAALSQVRERQLATQPVPESNGASSSEPPLSITGQPRPEHCEGAASGLRGPPPTVQPTPLSIPTPASNFLPPSNPPVQTTPPVGSSGSSLHHHPALSSAEEAVLHKLRWATQELQHAASVEASIQLCNLIRGCAESLRSLKELQLS", "soluble on expression in E. coli": "not soluble"}, {"sequence": "MAHHHHHHMTSGPNNTTNIYDPIEVARANPYFKRNHMGQVTCTLCGIYCPEENNFLKHIAGKTHALQLERRQHKELRHLRLQEEERLNTEAEERARKEEALLALSGGQAGSGAAGGAGALSSAAAAAANARFGTPLYSFRTEHDEVAYRTKVWIEVMFTQAEEGTRPLHRWLSAREQHVEKPPDDYFVYLLFACEGYTTVALKFPAKANRSQPRDVLEEADGSTSEAYWCSWDPLQKVYTLFFALSR", "soluble on expression in E. coli": "soluble"}, {"sequence": "MGHHHHHHSHVTNLNLATGIINRSSASAPPTLRPIISPSGPTWSTQSDPQAPENHSSSPGSSFI", "soluble on expression in E. coli": "not soluble"}, {"sequence": "MSLDVNYVPQNTSDAPAIPSAALQQLTWTPVDQSKTQTTQLATGGQQLNVPGISGPVAAYSVPANIGELTLTLTSEVNKQTSVFAPNVLILDQNMTPSAFFPSSYFTYQEPGVMSADRLEGVMRLTPALGQQKLYVLVFTTEKDLQQTTQLLDPAKAYAKGVGNSIPDIPDPVARHTTDGLLKLKVKTNSSSSVLVGPLFGSSAPAPVTVGNTAAPAVAAPAPAPVKKSEPMLNDTESYFNTAIKNAVAKGDVDKALKLLDEAERLGSTSARSTFISSVKGKGEGHHHHHH", "soluble on expression in E. coli": "soluble"}, {"sequence": "MAQVRKAHPKDLAAIARLSHQTLFLGREGPKVFPSETLWGALFVAPYLEAGCCNLVAEEEGRVVGYILGACADRPLALAFAKRLLWALPRLLLGRFGPPLPHLRYLLRLLRYPGPKAPKDRYPAHLHIAVDPEAQGHGVGKALLAAFLKCLREKGVPGVQLATTRANRAARGLYRAMGFRVYAKRASPFWAPYLGRPLIHEVWVRDLG", "soluble on expression in E. coli": "soluble"}, {"sequence": "MSLRVEAQNISKTFGEVQALKDLSFVIEKGKALGLLGRNGAGKTTAIRILLGILPSDTGKVLVDNKKLSFDENAFGYLPEERGLYLKYTVKSQLMHFASLYGMKKKEALNSIEYWLEKFEISEYLNKKVETLSKGNKQKIQLIVAVMHDPEVIILDEPFSGLDPVNVELFKTVIRELLAKGKTLIFSSHRMADVEEFCDDIIMLKKGETMLQGNLDKIKEDYGIKGLVVEGEEKVQDFLKELGFEALEFKKGSYRVNLKDLEKGKELLRKITNTDLDIRGFYFERPSLNDIFIERLGEGHHHHHH", "soluble on expression in E. coli": "soluble"}, {"sequence": "VNQQQLQQLMDMGFTREHAMEALLNTSTMEQATEYLLTHP", "soluble on expression in E. coli": "soluble"}, {"sequence": "MKRRESSPLISTILGIRYGRCVMGNFSIVIPTYNERDNIVKLVEEINRIVPYNSRILIVDDNSPDGTALILQELNIHNLTVLIRHNERGLGSALRYGISKAIELESDFIVTMDADFSHNPKYLPEMMKIALNENCDLVIGSRYVIGGGIENWSLSRRIISKGANYLFKLVSHSPIMDNTSNYRIYSRRAALLALECDTTNGYEFQICSIFKIIRNNLKIKEYPIIFVDRKTGKSKLNLKEILNWFLYIIRLSLSFLEHHHHHH", "soluble on expression in E. coli": "not soluble"}, {"sequence": "VSDQFDAKAFLKTVTSQPGVYRMYDAGGTVIYVGKAKDLKKRLSSYFRSNLASRKTEALVAQIQQIDVTVTHTETEALLLEHNYIKLYQPRYNVLLRDDKSY", "soluble on expression in E. coli": "soluble"}, {"sequence": "MSLNTFWKSFPDVERSLTETCELIEQTLHTRNEDIEEALVTLARSGGKLLRPAFFFLFAQLGDEEKQEKQQLLKIAASLEILHMATLIHDDIIDDSPLRRGAVTIQSQYGKDVAVYTGDLLFTEFFTLIADAMNGSEFMKINAQGMKRLLLGELDQMSHRFDRRMSIPAYLRSVNGKTAELFSLSCLEGAYFGHSSKEVQRLAKRIGRHIGIAFQVYDDILDYTADTETLKKPALEDLSQGVYTLPLLFAYQAAPDVFSPYLDKGRAITLEEAAEVAALVNDYHGVTEAQAFAKKVTNKAITDIQQLPDGTAKETLLSLTELLLHRSFEGHHHHHH", "soluble on expression in E. coli": "soluble"}, {"sequence": "MGHHHHHHSHYGSLNPKAITISQYGEPFVVGTSRVVEIIRKLRERFGEVRIDIQTNGTLLEPEILGSEADIVMISLDAGSRESYAEITGKDFFERVVKNIEKMSEHTYTVVRTVFMPGINDEELERIAEIASQADELFLQPLSIYRENTELLKRLDVERAESLGDYLQTAYRLSEIASVRIPGCLLLNMRWFLREFEIGEL", "soluble on expression in E. coli": "not soluble"}, {"sequence": "MSHELVELLRSVLKEELQPIHERLDRLEAGQQRLEERQQRLEERQQRLEERQQRLEEQQQRLGEKLDHFIIETRSHFKKIEDKLAGHRRMFDILPHDWRDTTMAIEYLKHKISQHDLEIYQLKKRLELQETK", "soluble on expression in E. coli": "not soluble"}]}]}
